B1: anti-HER3 mAb NG140 (antibody, V domains shown)
VH: QVQLKESGPGLVKPSQSLSLTCSVTGYSITSGYYWNWIRQFPGNKLEWMGSIYYDGSNNYNPSLKNRISVTRDTSKNQFFLKLNSVTTEDTATYYCARDYDVGYAMDYWGQGASVTVSS
VL: DIVLTQSSSYLSVSLGGRVTITCKASDHINNWLAWYQQKPGNAPRLLISGATSLETGVPSRFSGSGSGKDYTLSITSLQTEDVATYYCQQYWSIPWTFGGGTKLEIK
B2: anti-HER3 mAb NG33 (antibody, V domains shown)
VH: DVQLQESGPGLVKPSQSLSLTCSVTGYSITSGFYWSWIRQFPGNKLEWMGYIAYDGTSNYNPSLKNRISITRDTSKNQFFLKLKSVTNEDTPTYYCARGGGYYGQLLDYWGQGTSVTVSS
VL: DARMTQSPSSLSASLGDRVTISCRASQDISNYLNWYQQKPDGTVKVLIYNTAKLHSGVPSRFSGSGSGTDYSLTISNLEQEDFATYFCQQGKTLPWTFGGGTKLELK
B3: anti-HER3 mAb NG83 (antibody, V domains shown)
VH: QIQLVQSGPELKKRGETVKISCKASGYTFTNYGMNWVRQAPGKGLKCMGWINTYAGEPTYADDFKGRFAFSLDSSASTAYLQINNLKNEDMATYFCARGGITGAMDYWGQGTSVTVSS
VL: DVVMTQKTSSLSTSLGDRVTISCRASQDIRNYLNWYQQKPDGTVKLLIYYTSRLHSGVPSRFSGSGSGTDYSLTISDLEQEDIATYFCQQGNTLPWTFGGGTKLAIK
B4: mAb XC252 (antibody, V domains shown)
VH: EVQLQQSGAELVRPGVSVKISCKGSGYTFTDYAMHWVKQSHAKSLEWIGVISTYYGDPRDNQKFKGKATMTVDKSSSTAYMELARLTSEDSAIYYCARGDYDWYAIDYWGQGTSVTVSS
VL: DVVMTQTPLSLPVSLGDQASISCRSSQSIVHSDGNTYLEWYLQKPGQSPKLLIYKVSNRFSGVPDRFSGSGSGTDFTLKISRVEAEDLGVYYCFQGSHVPPTFGGGTKLEIK
notes: also called XC252-K2 (Lumi4 Tb cryptate labelled)

Tests used:
[1] = target: T1, HER3 fused with SNAP-Tag, expressed on HEK 293 cells and labelled with Lumi4-Tb (human, UniProt P21860 20-1342, SNAP-tag labelled with BG-Lumi4(Tb)); assay: Tag-lite FRET, d2-labelled mAb on HEK293 cells with Lumi4(Tb)-labelled HER3-SNAP-Tag
T1 construct: whole, on cells; the parts follow the printed name HER3-SNAP-Tag; also called HER3-SNAP-Tag; HEK293-HER3-SNAP-Lumi4-Tb cells; not shown: SNAP-Tag (CISbio Tag-lite plasmid)
T1 sequence (P21860 20-1342): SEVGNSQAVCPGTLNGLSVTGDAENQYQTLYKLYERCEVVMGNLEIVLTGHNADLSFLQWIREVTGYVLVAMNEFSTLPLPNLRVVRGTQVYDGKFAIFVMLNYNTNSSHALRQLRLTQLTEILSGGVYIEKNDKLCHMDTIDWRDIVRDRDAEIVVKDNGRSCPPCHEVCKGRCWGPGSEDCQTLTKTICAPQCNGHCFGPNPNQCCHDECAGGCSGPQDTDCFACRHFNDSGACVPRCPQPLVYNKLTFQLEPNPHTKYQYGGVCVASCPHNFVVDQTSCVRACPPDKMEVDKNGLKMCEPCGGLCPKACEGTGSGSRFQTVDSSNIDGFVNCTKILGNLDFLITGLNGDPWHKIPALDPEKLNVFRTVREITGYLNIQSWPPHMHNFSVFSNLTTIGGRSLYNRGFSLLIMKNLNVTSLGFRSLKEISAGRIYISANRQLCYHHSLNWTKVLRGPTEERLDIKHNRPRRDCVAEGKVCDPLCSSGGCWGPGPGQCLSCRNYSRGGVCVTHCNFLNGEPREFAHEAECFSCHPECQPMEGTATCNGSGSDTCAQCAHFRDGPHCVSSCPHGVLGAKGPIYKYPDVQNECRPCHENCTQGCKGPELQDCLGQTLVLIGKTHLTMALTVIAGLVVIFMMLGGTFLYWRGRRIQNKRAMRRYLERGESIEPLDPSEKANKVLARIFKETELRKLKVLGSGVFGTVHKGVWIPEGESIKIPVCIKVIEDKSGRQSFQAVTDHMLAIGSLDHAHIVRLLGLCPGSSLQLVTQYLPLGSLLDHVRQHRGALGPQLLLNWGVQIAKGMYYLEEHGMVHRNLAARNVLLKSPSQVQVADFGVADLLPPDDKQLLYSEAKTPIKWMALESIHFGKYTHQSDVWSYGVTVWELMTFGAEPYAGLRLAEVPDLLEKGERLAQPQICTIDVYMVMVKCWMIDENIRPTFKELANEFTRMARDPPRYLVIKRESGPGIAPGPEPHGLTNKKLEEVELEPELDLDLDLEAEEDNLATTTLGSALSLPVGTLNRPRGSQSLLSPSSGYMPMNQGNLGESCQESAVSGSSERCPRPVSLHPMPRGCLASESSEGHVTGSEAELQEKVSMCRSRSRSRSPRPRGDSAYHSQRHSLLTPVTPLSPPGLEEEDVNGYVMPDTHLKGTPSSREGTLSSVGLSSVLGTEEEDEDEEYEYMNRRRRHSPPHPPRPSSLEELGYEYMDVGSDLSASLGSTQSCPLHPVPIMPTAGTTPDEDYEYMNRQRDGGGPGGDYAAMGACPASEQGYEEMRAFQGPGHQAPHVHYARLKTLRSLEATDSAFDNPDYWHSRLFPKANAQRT
Experimental: FIGS. 3A-E show Kd determination of mAb to HER3 using the Tag-Lite technology. Cells are transfected with HER3-SNAP-Tag and labeled with BG-Lumi4(Tb), a SNAP-tag subtract. Following incubation with increasing concentrations of indicated d2 labeled mAb directed to HER3, the Kd was determined from the binding curve fitting. The binding curve was obtained by measuring the FRET between the donor Lumi4(Tb) and the acceptor d2-dye. The unspecific binding was evaluated by adding an excess of unlabelled Ab.
TABLE 2 Kd determination of indicated mAb to HER3 using the Tag- Lite technology. Cells were transfected with HER3-SNAP- Tag and labeled withBG-Lumi4(Tb), a SNAP-tag subtract. Following incubation with increasing concentrations of indicated d2 labeled mAb directed to HER3, the Kd was determined from the binding curve fitting. The binding curve was obtained by measuring the FRET between the donor Lumi4(Tb) and the acceptor d2-dye.

[2] = target: T2, IgB3 (recombinant HER3 extracellular domain fused to a human IgG Fc domain) (human, UniProt P21860 20-643); assay: ELISA, IgB3-coated microplate, purified mAb, HRP anti-mouse IgG
T2 construct: extracellular domain; Secreted from HEK-293 cells, purified on protein G / protein A; not shown: Fc domain of a human IgG1
T2 sequence (P21860 20-643): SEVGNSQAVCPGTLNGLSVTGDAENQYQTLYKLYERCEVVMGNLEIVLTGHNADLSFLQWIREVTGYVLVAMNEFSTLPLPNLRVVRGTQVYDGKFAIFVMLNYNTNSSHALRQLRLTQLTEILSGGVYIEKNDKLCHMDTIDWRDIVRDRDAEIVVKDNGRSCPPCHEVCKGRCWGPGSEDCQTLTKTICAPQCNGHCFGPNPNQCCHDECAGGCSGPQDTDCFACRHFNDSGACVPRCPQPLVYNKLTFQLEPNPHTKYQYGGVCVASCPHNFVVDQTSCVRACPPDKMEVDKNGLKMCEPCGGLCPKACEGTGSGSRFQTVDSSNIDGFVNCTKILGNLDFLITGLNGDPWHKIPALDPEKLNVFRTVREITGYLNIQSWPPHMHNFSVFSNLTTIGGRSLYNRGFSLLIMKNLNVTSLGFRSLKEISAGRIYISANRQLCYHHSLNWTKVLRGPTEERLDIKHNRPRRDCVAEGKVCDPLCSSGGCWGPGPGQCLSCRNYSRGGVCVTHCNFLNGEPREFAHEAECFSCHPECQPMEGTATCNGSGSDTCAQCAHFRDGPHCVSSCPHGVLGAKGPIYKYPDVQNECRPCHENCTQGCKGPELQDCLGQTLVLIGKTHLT
Experimental: FIGS. 2A-D show monoclonal antibody targeting HER3 extracellular domain. (FIG. 2A) 96 well-plates were coated with 1.5 μg/ml of IgB3, blocked with PBS-BSA (1% weight/vol) and incubated for 1 h with various concentrations of purified mAbs under gentle shaking at RT. After washing, a second 1 h-incubation with HRP-labelled anti-mouse IgG was performed and followed by incubation with 2,2′-azino-bis (3-ethylbenzothiazoline-6-sulfonic acid) for 10 min. The OD at 415 nm was measured using by an ELISA microplate reader. […] After 2 washes, the cells were incubated for 1 h at 4° C. (in the dark) with a secondary anti-mouse IgG Ab coupled to AlexaFluor 488. The fluorescence intensity (F.I.) was measured on the LSRII flow cytometer. […] After 4 washes, the content bound to the beads was eluted and analyzed by immunoblotting (IB) with an antibody to HER3/ErbB-3.
The comparison of the capacity of purified mAbs to bind with IgB3 was evaluated using ELISA (FIG. 2A). […] Each antibody was labeled with the d2-dye, and by measuring the binding of the labeled-mAb to cells presenting Lumi4(Tb)-labeled HER3 using FRET, the KD was determined and reported in Table 2, below. The values obtained correlate with the different patterns of HER3 binding determined by FACS (FIGS. 2B and 2C), although they are distinct from the patterns of IgB3 binding determined using ELISA (FIG. 2A).

[3] = target: T1, HER3 fused with SNAP-Tag, expressed on …; assay: Tag-lite FRET KD of Table 2, compared with the other mAbs
EGFR (ErbB1/HER1) = target: T3, EGFR (ErbB1/HER1) (human, UniProt P00533 25-1210); assay: flow cytometry on NIH/3T3 cells presenting EGFR alone
T3 construct: whole, on cells; also called NIH/3T3-EGFR cells; NIH/3T3-R1
Experimental: (§1) FIGS. 4A-B show specificity of monoclonal antibodies directed to HER3. (FIG. 4A) NIH/3T3-EGFR, -HER2, -HER3 or -EGFR/HER4 cells were incubated with 25 μg/ml of each mAb for 1.5 h at 4° C. After 2 washes, the cells were incubated for 1 h at 4° C. (in the dark) with a secondary anti-mouse IgG Ab coupled to AlexaFluor 488. The fluorescence intensity (F.I.) was measured on the LSRII flow cytometer. The negative control is made using an irrelevant mouse IgG as primary Ab. The positive control are the following mAb 565 (anti-EGFR), mAb L26 (anti-HER2), mAb 9F7 (anti-HER3), mAb 77 (anti-HER4). (FIG. 4B) The panel presents the geometric mean and the CV of the fluorescence intensity.

HER2 (ErbB2) = target: T4, HER2 (ErbB2) (human, UniProt P04626 23-1255); assay: flow cytometry on NIH/3T3 cells presenting HER2 alone
T4 construct: whole, on cells; also called NIH/3T3-HER2 cells; NIH/3T3-R2
Experimental: as §1

HER4 (ErbB4) = target: T5, HER4 (ErbB4) (human, UniProt Q15303 26-1308); assay: flow cytometry on NIH/3T3 cells presenting EGFR and HER4
T5 construct: whole, on cells; also called NIH/3T3-EGFR/HER4 cells; NIH/3T3-R1R4
T5 sequence (Q15303 26-1308): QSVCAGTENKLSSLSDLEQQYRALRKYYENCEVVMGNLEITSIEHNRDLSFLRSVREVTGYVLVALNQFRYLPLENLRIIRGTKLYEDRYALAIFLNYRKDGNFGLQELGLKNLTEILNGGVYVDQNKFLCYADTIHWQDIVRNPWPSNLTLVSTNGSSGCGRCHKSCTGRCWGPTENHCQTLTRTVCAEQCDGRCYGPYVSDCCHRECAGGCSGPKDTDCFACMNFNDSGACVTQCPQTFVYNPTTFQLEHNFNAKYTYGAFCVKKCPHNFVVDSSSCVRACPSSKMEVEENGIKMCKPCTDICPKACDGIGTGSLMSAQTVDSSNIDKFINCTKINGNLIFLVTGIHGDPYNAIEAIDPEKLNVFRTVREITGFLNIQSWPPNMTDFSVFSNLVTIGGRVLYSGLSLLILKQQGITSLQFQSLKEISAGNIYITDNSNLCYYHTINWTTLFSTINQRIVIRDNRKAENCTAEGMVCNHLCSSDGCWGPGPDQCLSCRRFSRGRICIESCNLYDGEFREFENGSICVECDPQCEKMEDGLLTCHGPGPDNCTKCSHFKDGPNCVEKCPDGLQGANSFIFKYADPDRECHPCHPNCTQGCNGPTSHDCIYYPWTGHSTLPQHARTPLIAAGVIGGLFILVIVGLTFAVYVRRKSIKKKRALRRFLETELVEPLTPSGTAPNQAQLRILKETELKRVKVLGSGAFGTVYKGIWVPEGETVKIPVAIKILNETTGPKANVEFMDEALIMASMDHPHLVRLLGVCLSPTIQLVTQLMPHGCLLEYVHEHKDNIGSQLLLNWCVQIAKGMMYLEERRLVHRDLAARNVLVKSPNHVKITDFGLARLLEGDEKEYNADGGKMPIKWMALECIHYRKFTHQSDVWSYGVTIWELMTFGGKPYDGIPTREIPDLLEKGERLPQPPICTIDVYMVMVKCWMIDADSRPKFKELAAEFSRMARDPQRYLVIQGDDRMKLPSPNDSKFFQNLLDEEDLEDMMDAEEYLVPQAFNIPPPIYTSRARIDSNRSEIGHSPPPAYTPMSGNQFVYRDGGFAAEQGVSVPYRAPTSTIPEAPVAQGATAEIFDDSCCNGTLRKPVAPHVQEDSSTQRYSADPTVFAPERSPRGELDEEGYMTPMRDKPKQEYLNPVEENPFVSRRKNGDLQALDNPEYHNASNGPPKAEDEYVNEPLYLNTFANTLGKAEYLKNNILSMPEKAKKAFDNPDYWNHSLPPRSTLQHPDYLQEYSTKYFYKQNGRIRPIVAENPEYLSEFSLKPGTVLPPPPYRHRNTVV
Experimental: as §1

Row | Binder | Kd [1] | EC50 [2] | fold weaker affinity than the other mAbs [3] | binding result (EGFR (ErbB1/HER1)) | binding result (HER2 (ErbB2)) | binding result (HER4 (ErbB4))
1 | B1 | 6.12 nM | 16.8 nM |  |  |  | 
2 | B2 | 2.96 nM |  |  |  |  | 
3 | B3 | > 14 nM |  | 10 fold |  |  | 
4 | B4 | 1.09 nM | 0.21 nM |  | no binding (tested: 25 µg/ml) | no binding (tested: 25 µg/ml) | no binding (tested: 25 µg/ml)

From patent US20170306049A1 (YEDA RESEARCH AND DEVELOPMENT, published 2017)
